Data taken from the DeepSol protein solubility set.

Test: soluble on expression in E. coli; label from the status in PepcDB or PDB records

Sequence: MGSDKIHHHHHHGNSSTGLSSGGSNVSLEVLKHRPLVEKYAKESDILEYVPILLAIIQVESGGTMEDVMQSSESAGFPPNSLSTEASIKQGCIYFASLVNRAKDIGCDQESIIQSYNYGGGYLDYVGKNGKKYSFALAESFSKEKSDGEKVTYSNPIAIKENGGWRYNYGNMFYVMLVKQYLTTTKFDDKTVQGIFDEAFKYEGTAYVFGGSSPATGFDCSGLTQWCYAKVGLQLPRVAQDQYDAMSHIELKDAKPGDLIFFHSTYDAGTYVTHVGIYAGDNRMFHAGDPVGWTNLTETYWQQHIIGAGRYKNRKGDR
- soluble on expression in E. coli: not soluble

Sequence: MKKQKKARLIYNPTSGQEIMKKNVAEVLDILEGFGYETSAFQTTPTKNSARDEATRAAQAGFDLIVAAGGDGTINEVVNGIAPLKRRPKMAIIPTGTTNDFARALKIPRGNPIEATKLIGKNQIVKMDIGQAQEDNYFINIAAAGSLTELTYSVPSQLKTTFGYLAYLAKGVELLPRVRKVPVKITHDKGEFIGDASMIFVAITNSVGGFEQIAPDAKLDDGKFTLILVKTANLIEIMHLIRLVLAGGKHINDKRVEYIKTSYLTIEPLSDERMMINLDGEYGGDAPITLANLKNHIRFFANTDEISDDALVLDKDELAIEAIAQKFANEVDDLEGLGD
- soluble on expression in E. coli: soluble

Sequence: MAHHHHHHMEREKHENMLMAIARDFNSVDDLIETFLTFLENKTDYFHVMLNDKDVETLSEKYDGAILKNLLNNNNCGFKAHSREQLLIKSFRKHQINYIMRKQPYIIENEEIKNKYLTSCDELKKIKYMPTTKDMNKEKQENSTKVNSDVHSLNVTQENHISIWNGGKTDKYYWNQALKEINLEMPFNEEIKPNDVNVQITNTNIKIYHCGVLKLEGMFYEEVDKQECVWSIEDKKNIIIYLEKKRENWWPCVIKGDTEIDTKNIESKKNLTDFDEKTQGQIRKFLLEQRMKNEGIPTPEDLRKQNIINNVLSSKGEPFGR
- soluble on expression in E. coli: not soluble

Sequence: DSKKIVGVFYKANEYATKNPNFLGCVENALGIRDWLESQGHQYIVTDDKEGPDCELEKHIPDLHVLISTPFHPAYVTAERIKKAKNLKLLLTAGIGSDHIDLQAAAAAGLTVAEVTGSNVVSVAEDELMRILILMRNFVPGYNQVVKGEWNVAGIAYRAYDLEGKTIGTVGAGRIGKLLLQRLKPFGCNLLYHDRLQMAPELEKETGAKFVEDLNEMLPKCDVIVINMPLTEKTRGMFNKELIGKLKKGVLIVNNARGAIMERQAVVDAVESGHIGGYSGDVWDPQPAPKDHPWRYMPNQAMTPHTSGTTIDAQLRYAAGTKDMLERYFKGEDFPTENYIVKDGELAPQYR
- soluble on expression in E. coli: soluble

Sequence: MSSVLRLAMRAKGFSRFLAETQAFPVKNRHFMTSSVRKTGDFEYEDPKSEDEVVNITYVLRDGTERKIRGKVGDNVMFLAHRYDIEMEGACEASLACSTCHVYVDPAFQNKLPEPLEEEDDMLDMAPALKDNSRLGCQIVLTKELDGITVTLPTMTRNFYVDGHVPKPH
- soluble on expression in E. coli: not soluble

Sequence: MGSDKIHHHHHHMKTVMLMLTSLLMAGCSVLGKREAAEPPYELLKHDGAFEVRRYGPMVIAETILDEKSYSAASGKGFNRLAGYIFGKNRSKTSISMTAPVLQERSSEKISMTAPVLQQPQKGGWSMAFVLPEGFTLQSAPEPLDPEVKLRELPPSTIAVVTFSGLHSAANLEKYSRQLQAWLKKQGYRALSEPKLASYDPPWTIPFLRRNEVQIRIEPDHGESGKE
- soluble on expression in E. coli: not soluble

Sequence: MGSDKIHHHHHHMDKNPLVYEYSIGKRKPYDYDYGNRQGNQNAGCPFCDVRHLVNIFEKDGDKIWLKNKYPTLQDTDQTILIESSDHQGDISTYTREDNQELMKFALKCFQKMYNSGRYKSVLWYKNFGPKSDGSLTHPHMQIVGLYHKDGYHDIGPDNFKGFEVGKSGSVEMNLSAYPVQGYQEVNIITHDNTNLGTWADLIQKGTQYVRSVLSHGVDSYNLFFYPINDGQGTCCKIIPRFYASPYFVGYKISQVDDSDTLKWEAERLKGFVNGGILH
- soluble on expression in E. coli: not soluble

Sequence: MYSANRSHRAETRNRSKDELRKVINSLEKVRRWEKKLVLIKDTNIRIYKWVPVSAQNIMAPPKIKEVKEVDEESNQVPSAENSQDSTSVTQPPPQFDINEDSNFSTGDHFDSDSNQTFEPQNYQGGATGSTDFSSMRDAEMTSKQP
- soluble on expression in E. coli: not soluble

Sequence: MGTEFNGLFDEWAHTYDSFVQGEDIQYKEVFAHYEDILEDVVNKSFGNVLEFGVGTGNLTNKLLLAGRTVYGIEPSREMRMIAKEKLPKEFSITEGDFLSFEVPTSIDTIVSTYAFHHLTDDEKNVAIAKYSQLLNKGGKIVFADTIFADQDAYDKTVEAAKQRGFHQLANDLQTEYYTRIPVMQTIFENNGFHVTFTRLNHFVWVMEATKQLEHHHHHH
- soluble on expression in E. coli: soluble

Sequence: MSDQQQPPVYKIALGIEYDGSKYYGWQRQNEVRSVQEKLEKALSQVANEPITVFCAGRTDAGVHGTGQVVHFETTAQRKDAAWTLGVNANLPGDIAVRWVKAVPDDFHARFSATARRYRYIIYNHRLRPAVLSKGVTHFYEPLDAERMHRAAQCLLGENDFTSFRAVQCQSRTPWRNVMHINVTRHGPYVVVDIKANAFVHHMVRNIVGSLMEVGAHNQPESWIAELLAAKDRTLAAATAKAEGLYLVAVDYPDRYDLPKPPMGPLFLAD
- soluble on expression in E. coli: soluble

Sequence: KAEMRHMENKVLESELRQRAVVEASLLETQGRLLEQLESAPEAIICLREDQRIRFANEAACKLFKRSLEQLKRS
- soluble on expression in E. coli: not soluble

Sequence: MTVETQLNPTQPVNQQIYRILRRDIVHCLIPPGTPLSEKEVSTRFNVSRQPVREAFIKLAENGLIQIRPQRGSYVNKISLSQVQNGCFVRQAIECAVVRRAAAMITDNQCYQLAQNLHLQHIAIERKQIDDFFQLDDDFHQKLAQIADCQLAWDTIENIKATIDRVRYMSLDHVSPPEMLLRQHHDIFSALENRDGNAVESAMTQHLQEISESVQLIRQENSGWFSEE
- soluble on expression in E. coli: not soluble

Sequence: MSLEPVQDDSVSGNFYISGKYMPSASHFGVFSAKEEKNPTVALYGLKQDWNGVSASSHADADFNNKGYSFKYENNPFLGFAGAIGYSMGGPRIEFEVSYETFDVKNQGGNYKNDAHRYCALDRKASSTNATASHYVLLKNEGLLDISLMLNACYDVVSEGIPFSPYICAGVGTDLISMFEAINPKISYQGKLGLSYSINPEASVFVGGHFHKVAGNEFRDISTLKAFATPSSAATPDLATVTLSVCHFGVELGGRFNFEGHHHHHH
- soluble on expression in E. coli: not soluble

Sequence: MSLRIIKAGLIGCGNISSIYFENVHRFKHLTIVACADLHLERARAQAEKYRIPKACTVAELLEDPEIELVINLTIPQVHAKVCIQALEAGKHVYTEKPLTITLEEGQKLLEKAKETGLLVGCAPDTFLGAGIQTSIQVIERGEIGTPVGASAFMIGRGHEHWHPDPAFYYDVGGGPMYDMGPYYLTALTALLGPMARVSGSARITYPERTILSEPKKGTKIKVSTPTHISGVIDFANGAIASITTSFDAFGGSVLPPIEVYGSEGTLLVPDPNTFDGPVQLRKRDEREFVEVPLTYHYTENNRGIGVADMAMSLLTGSDYRASGTMGFHVLEAMHGFHMSSTSGHHYQMKSTCRKPEPLPVDFRFSYVETEGHHHHHH
- soluble on expression in E. coli: soluble

Sequence: MHSENQSKGVHYAKSQRLLEINHAHLQLMESLLDEGKKYNIFKPGIDPLQVNINIAALGGYYLINQHTLGLVYHISMVSPQALEARRKVIKETILSWLLVDPSSTAHE
- soluble on expression in E. coli: not soluble

Sequence: MGSDKIHHHHHHMAEKKEFVVGIDLGTTNSVIAWMKPDGTVEVIPNAEGSRVTPSVVAFTKSGEILVGEPAKRQMILNPERTIKSIKRKMGTDYKVRIDDKEYTPQEISAFILKKLKNDAEAYLGGEIKKAVITCPAYFNDAQRQATKEAGIIAGLEVLRIINEPTAAALAYGLDKAGKEEKVLVYDLGGGTFDVSILEIGEGVIEVIATAGNNHLGGDDFDQRLIDWMAEEFKKQHGIDLREDRQALQRLRDAAEKAKIELSTKMETDVSLPFIAVSPSGQPLHLEMRITRSLFESLTRDLVEMTRGPIEQALNDAKLSPQDIDEIILVGGMTRVPMVQRFIKEFFGKEPNKSVNPDEAVAIGAAIQAAILAGTEGAKGRDIVLVDVTPLTLGIEVKGGLFEPIIPRNTKIPVRKSKIFTTVEDGQTEVEIRVYQGERPIARENIFLGSFKLVGIPPAPRGVPQIEVTFDIDSDGIVHVSAKDLGSGKEQSMVVTGRHKLSEDEIKRMIEDAKRYEEQDKRLKEEIELKNRADDLAYSVEKTLKEHGDKIPADLKSRLEDMIRELRDAINRNDIPKVKMLFDDLQKESMKIGEYLYKSATGGETSNQ
- soluble on expression in E. coli: not soluble

Sequence: MASQSQGIQQLLQAEKRAKDKLEEAKKRKNKRLRQAKEEATADIDQYRLKREADFRRIQTSVMGSQGNLAVKIEEQTVEKIQFYSSSYNKYKEGVLKELLDLAYNIKPELHTNYKYKI
- soluble on expression in E. coli: not soluble

Sequence: MSLKKILVIGSKGFIGSNLVAYYEKINTIDVWGCDVISDYSSRNYFLIDASNSDFNEVFQQVAFDVCINCSGSASVPLSMINPGRDFHLNVLNVFNMLDSIRKNIPSCKFVNLSSAAVYGNPESLPIKEDTPINPLSPYGWHKLQSEILCKQFNQNFALHTCSLRIFSAYGIGLRKQLFWDWFQKINDAASMSIYGTGKESRDFIYIDDLIQCIECVVARGDFNAGIYNIANGQEIYIADAIKEFKKASGKSFEYTFTQETRPGDPINWVADISKLKTLGYQQQVTFEKGVEILMKWLQQEKEGHHHHHH
- soluble on expression in E. coli: soluble

Sequence: MGHHHHHHSHMEFPFDVDALFPERITVLDQHLRPPARRPGTTTPARVDLQQQIMTIIDELGKASAKAQNLSAPITSASRMQSNRHVVYILKDSSARPAGKGAIIGFIKVGYKKLFVLDDREAHNEVEPLCILDFYIHESVQRHGHGRELFQYMLQKERVEPHQLAIDRPSQKLLKFLNKHYNLETTVPQVNNFVIFEGFFAHQHRPPAPSLRATRHSRAAAVDPTPAAPARKLPPKRAEGDIKPYSSSDREFLKVAVEPPWPLNRAPRRATPPAHPPPRSSSLGNSPERGPLRPFVPEQELLRSLRLCPPHPTARLLLAADPGGSPAQRRRTR
- soluble on expression in E. coli: not soluble

Sequence: GPSASLLVQNGTLNVGDAIVVGNTYGRIRAMVNDLGQRIKTAGPSTPVEITGINDVPQAGDRFV
- soluble on expression in E. coli: soluble

Sequence: MSFKDLRSFIDHLEANGELKRISYPVDPHLEMTEIADRVLRAQGPALLFENPTNHSMPVLANLFGTPKRVAMALGKDDPLALREVGELLAFLKEPEPPRGFKDAISKIPMFKQALNMPPKTVRNPACQQVVKTGDDVDLTQLPIQHCWPGDVAPLVTWGLTITKGPRKSRQNLGIYRQQLLGKNKLIMRWLSHRGGALDFADFKEQFPGERYPVVVALGSDPVTILGAVTPVPDAMSEYAFAGLLRGERTEVCKALSCDLEVPASSEIILEGYIDPNEMAEEGPYGDHTGYYNETDKFPVFTVTHITHRKDPIYHSTYTGRPPDEPAMLGVALNEVFVPILRKQYPEIIDFYLPPEGCSYRMAVISIRKQYPGHAKRVMMGAWSFLRQFMYTKFIVVVDDDVNCRDWNDVIWAITTRMDPKRDTVMIDNTPIDYLDFASPVVGLGSKMGLDATNKWEGETNREWGTPIVMDPKVKQKIDSIWDELGIS
- soluble on expression in E. coli: soluble

Sequence: MRIHNDKNDHGDNNEIMDYILEKYKPLVRKKTNALYLIGGENDDLIQEGMIGLFKAVRDYKSDKEASFYSFAQLCITRQLSSALEASNRKKHMPLNTYISFSQSDSDGTEFEEMLQDDIASPEQLLIEKEKFKEFKEQLWNKLSNMEKKVLQLYLEGNNYTSIAHMLGKSDKSIDNALSRIRQKLKRK
- soluble on expression in E. coli: not soluble
